Measured values: article PMC4320835

Molecular target: wild-type H3 A/Perth/16/2009 recombinant hemagglutinin (rHA) (influenza A virus, H3 A/Perth/16/2009)
Experiment: cross-linking

Substance: wild-type H3 A/Perth/16/2009 recombinant hemagglutinin (rHA) (natural protein)
- percent cross-linked after 1 month at 25°C: 72%
